± gives the standard deviation of the averaged measurements.
Test: total protein half-life in vivo (active degradation + dilution); higher = more stable protein
[1] = E. coli NCM3722 delta-clpP delta-lon delta-hslV, growth: N-lim chemostat, doubling time 6 h
[2] = E. coli NCM3722 delta-clpP, growth: N-lim chemostat, doubling time 6 h
[3] = E. coli NCM3722 delta-lon, growth: N-lim chemostat, doubling time 6 h
[4] = E. coli NCM3722 delta-smpB, growth: N-lim chemostat, doubling time 6 h
[5] = wild type E. coli NCM3722, growth: C-lim chemostat, doubling time 3 h
[6] = wild type E. coli NCM3722, growth: C-lim chemostat, doubling time 12 h
[7] = wild type E. coli NCM3722, growth: N-lim chemostat, doubling time 6 h
[8] = wild type E. coli NCM3722, growth: N-lim chemostat, doubling time 12 h
[9] = wild type E. coli NCM3722, growth: P-lim chemostat, doubling time 6 h
[10] = wild type E. coli NCM3722, growth: P-lim chemostat, doubling time 12 h
[11] = E. coli NCM3722 delta-hslV, growth: N-lim chemostat, doubling time 6 h
[12] = wild type E. coli NCM3722, growth: C-lim chemostat, doubling time 6 h

## MQKYISEARLLLALAIPVILAQIAQTAMGFVDTVMAGGYSATDMAAVAIGTSIWLPAILFGHGLLLALTPVIAQLNGSGRRERIAHQVRQGFWLAGFVSVLIMLVLWNAGYIIRSMENIDPALADKAVGYLRALLWGAPGYLFFQVARNQCEGLAKTKPGMVMGFIGLLVNIPVNYIFIYGHFGMPELGGVGCGVATAAVYWVMFLAMVSYIKRARSMRDIRNEKGTAKPDPAVMKRLIQLGLPIALALFFEVTLFAVVALLVSPLGIVDVAGHQIALNFSSLMFVLPMSLAAAVTIRVGYRLGQGSTLDAQTAARTGLMVGVCMATLTAIFTVSLREQIALLYNDNPEVVTLAAHLMLLAAVYQISDSIQVIGSGILRGYKDTRSIFYITFTAYWVLGLPSGYILALTDLVVEPMGPAGFWIGFIIGLTSAAIMMMLRMRFLQRLPSAIILQRASR
[1]
  total protein half-life in vivo: 5.68 ± 0.19 h
[2]
  total protein half-life in vivo: 6.61 h
[3]
  total protein half-life in vivo: 4.97 ± 0.54 h
[4]
  total protein half-life in vivo: 5.45 ± 0.68 h
[5]
  total protein half-life in vivo: 3.6 h
[6]
  total protein half-life in vivo: > 16 h
[7]
  total protein half-life in vivo: 6.87 ± 0.42 h
[8]
  total protein half-life in vivo: 12 ± 0.72 h
[9]
  total protein half-life in vivo: 5.52 ± 0.6 h
[10]
  total protein half-life in vivo: 12.7 ± 0.75 h

## MSKQLTAQAPVDPIVLGKMGSSYGIRGWLRVFSSTEDAESIFDYQPWFIQKAGQWQQVQLESWKHHNQDMIIKLKGVDDRDAANLLTNCEIVVDSSQLPQLEEGDYYWKDLMGCQVVTTEGYDLGKVVDMMETGSNDVLVIKANLKDAFGIKERLVPFLDGQVIKKVDLTTRSIEVDWDPGF [P0A7X6]
[1]
  total protein half-life in vivo: 5.56 ± 0.28 h
[2]
  total protein half-life in vivo: 3.21 h
[11]
  total protein half-life in vivo: 3.38 h
[3]
  total protein half-life in vivo: 4.04 ± 1.9 h
[4]
  total protein half-life in vivo: 3.79 h
[5]
  total protein half-life in vivo: 2.65 ± 0.43 h
[12]
  total protein half-life in vivo: 4.72 ± 0.19 h
[6]
  total protein half-life in vivo: 7.94 ± 0.8 h
[8]
  total protein half-life in vivo: 5.22 h
[10]
  total protein half-life in vivo: 3.98 ± 0.42 h

## MSQIHKHTIPANIADRCLINPQQYEAMYQQSINVPDTFWGEQGKILDWIKPYQKVKNTSFAPGNVSIKWYEDGTLNLAANCLDRHLQENGDRTAIIWEGDDASQSKHISYKELHRDVCRFANTLLELGIKKGDVVAIYMPMVPEAAVAMLACARIGAVHSVIFGGFSPEAVAGRIIDSNSRLVITSDEGVRAGRSIPLKKNVDDALKNPNVTSVEHVVVLKRTGGKIDWQEGRDLWWHDLVEQASDQHQAEEMNAEDPLFILYTSGSTGKPKGVLHTTGGYLVYAALTFKYVFDYHPGDIYWCTADVGWVTGHSYLLYGPLACGATTLMFEGVPNWPTPARMAQVVDKHQVNILYTAPTAIRALMAEGDKAIEGTDRSSLRILGSVGEPINPEAWEWYWKKIGNEKCPVVDTWWQTETGGFMITPLPGATELKAGSATRPFFGVQPALVDNEGNPLEGATEGSLVITDSWPGQARTLFGDHERFEQTYFSTFKNMYFSGDGARRDEDGYYWITGRVDDVLNVSGHRLGTAEIESALVAHPKIAEAAVVGIPHNIKGQAIYAYVTLNHGEEPSPELYAEVRNWVRKEIGPLATPDVLHWTDSLPKTRSGKIMRRILRKIAAGDTSNLGDTSTLADPGVVEKLLEEKQAIAMPS
[1]
  total protein half-life in vivo: 4.67 ± 0.31 h
[2]
  total protein half-life in vivo: 4.83 ± 0.67 h
[11]
  total protein half-life in vivo: 3.24 ± 0.14 h
[3]
  total protein half-life in vivo: 3.54 ± 0.24 h
[4]
  total protein half-life in vivo: 3.221 ± 0.018 h
[5]
  total protein half-life in vivo: 2.89 ± 0.091 h
[12]
  total protein half-life in vivo: 4.91 ± 0.44 h
[6]
  total protein half-life in vivo: 7.66 ± 0.46 h
[7]
  total protein half-life in vivo: 3.88 ± 0.81 h
[8]
  total protein half-life in vivo: 4.67 ± 0.55 h
[9]
  total protein half-life in vivo: 4.28 ± 0.03 h
[10]
  total protein half-life in vivo: 7.43 ± 0.81 h

## MIFSDWPWRHWRQVRGETIALRLNDEQLNWRELCARVDELASGFAVQGVVEGSGVMLRAWNTPQTLLAWLALLQCGARVLPVNPQLPQPLLEELLPNLTLQFALVPDGENTFPALTSLHIQLVEGAHAATWQPTRLCSMTLTSGSTGLPKAAVHTYQAHLASAQGVLSLIPFGDHDDWLLSLPLFHVSGQGIMWRWLYAGARMTVRDKQPLEQMLAGCTHASLVPTQLWRLLVNRSSVSLKAVLLGGAAIPVELTEQAREQGIRCFCGYGLTEFASTVCAKEADGLADVGSPLPGREVKIVNNEVWLRAASMAEGYWRNGQLVSLVNDEGWYATRDRGEMHNGKLTIVGRLDNLFFSGGEGIQPEEVERVIAAHPAVLQVFIVPVADKEFGHRPVAVMEYDHESVDLSEWVKDKLARFQQPVRWLTLPPELKNGGIKISRQALKEWVQRQQ
[2]
  total protein half-life in vivo: 4.96 h
[11]
  total protein half-life in vivo: 3.92 h
[5]
  total protein half-life in vivo: 3.2 h
[12]
  total protein half-life in vivo: > 8 h
[6]
  total protein half-life in vivo: 11.3 ± 1.4 h
[7]
  total protein half-life in vivo: 4.4 h
[9]
  total protein half-life in vivo: 6.327 ± 0.016 h
[10]
  total protein half-life in vivo: 10.3 ± 1 h

## MNKTTEYIDAMPIAASEKAALPKTDIRAVHQALDAEHRTWAREDDSPQGSVKARLEQAWPDSLADGQLIKDDEGRDQLKAMPEAKRSSMFPDPWRTNPVGRFWDRLRGRDVTPRYLARLTKEEQESEQKWRTVGTIRRYILLILTLAQTVVATWYMKTILPYQGWALINPMDMVGQDLWVSFMQLLPYMLQTGILILFAVLFCWVSAGFWTALMGFLQLLIGRDKYSISASTVGDEPLNPEHRTALIMPICNEDVNRVFAGLRATWESVKATGNAKHFDVYILSDSYNPDICVAEQKAWMELIAEVGGEGQIFYRRRRRRVKRKSGNIDDFCRRWGSQYSYMVVLDADSVMTGDCLCGLVRLMEANPNAGIIQSSPKASGMDTLYARCQQFATRVYGPLFTAGLHFWQLGESHYWGHNAIIRVKPFIEHCALAPLPGEGSFAGSILSHDFVEAALMRRAGWGVWIAYDLPGSYEELPPNLLDELKRDRRWCHGNLMNFRLFLVKGMHPVHRAVFLTGVMSYLSAPLWFMFLALSTALQVVHALTEPQYFLQPRQLFPVWPQWRPELAIALFASTMVLLFLPKLLSILLIWCKGTKEYGGFWRVTLSLLLEVLFSVLLAPVRMLFHTVFVVSAFLGWEVVWNSPQRDDDSTSWGEAFKRHGSQLLLGLVWAVGMAWLDLRFLFWLAPIVFSLILSPFVSVISSRATVGLRTKRWKLFLIPEEYSPPQVLVDTDRFLEMNRQRSLDDGFMHAVFNPSFNALATAMATARHRASKVLEIARDRHVEQALNETPEKLNRDRRLVLLSDPVTMARLHFRVWNSPERYSSWVSYYEGIKLNPLALRKPDAASQ
[1]
  total protein half-life in vivo: 6.7 ± 0.34 h
[2]
  total protein half-life in vivo: 6.54 ± 0.33 h
[11]
  total protein half-life in vivo: 6.46 ± 0.79 h
[3]
  total protein half-life in vivo: 6.41 ± 0.39 h
[4]
  total protein half-life in vivo: 5.99 ± 0.24 h
[5]
  total protein half-life in vivo: 3.26 ± 0.39 h
[12]
  total protein half-life in vivo: 6.45 ± 0.66 h
[7]
  total protein half-life in vivo: 6.22 ± 0.42 h
[8]
  total protein half-life in vivo: 13.4 ± 0.32 h
[9]
  total protein half-life in vivo: 6.3 ± 0.32 h
[10]
  total protein half-life in vivo: 13.3 ± 1.8 h

## MLARGKTNLKIEEIRMHKHHEIHRVKPLMPALCRIRQGKKVINWETHTLTVDNNQIILFPCGYEFYIENYPEAGLYLAEMLYLPIDLIESFQKLYTVTDQIRNKTSFFLPQNPELIYCWEQLKTSVSRGFSTKIQEHLAMGVLLSLGVNHVNHLLLSYSKQSLISRCYNLLLSEPGTKWTANKVARYLYISVSTLHRRLASEGVSFQSILDDVRLNNALSAIQTTVKPISEIARENGYKCPSRFTERFHNRFNITPREIRKASRE
[1]
  total protein half-life in vivo: 5.01 ± 0.22 h
[2]
  total protein half-life in vivo: > 8 h
[4]
  total protein half-life in vivo: 3.44 ± 0.094 h
[5]
  total protein half-life in vivo: 2 ± 0.38 h
[12]
  total protein half-life in vivo: 3.83 ± 0.19 h
[6]
  total protein half-life in vivo: 6.07 ± 1.8 h
[7]
  total protein half-life in vivo: 4.12 ± 0.23 h
[8]
  total protein half-life in vivo: 7.29 ± 0.94 h
[9]
  total protein half-life in vivo: 3.65 ± 1.5 h
[10]
  total protein half-life in vivo: 5.86 ± 1.1 h

## MFALCDVNAFYASCETVFRPDLWGKPVVVLSNNDGCVIARNAEAKALGVKMGDPWFKQKDLFRRCGVVCFSSNYELYADMSNRVMSTLEELSPRVEIYSIDEAFCDLTGVRNCRDLTDFGREIRATVLQRTHLTVGVGIAQTKTLAKLANHAAKKWQRQTGGVVDLSNLERQRKLMSALPVDDVWGIGRRISKKLDAMGIKTVLDLADTDIRFIRKHFNVVLERTVRELRGEPCLQLEEFAPTKQEIICSRSFGERITDYPSMRQAICSYAARAAEKLRSEHQYCRFISTFIKTSPFALNEPYYGNSASVKLLTPTQDSRDIINAATRSLDAIWQAGHRYQKAGVMLGDFFSQGVAQLNLFDDNAPRPGSEQLMTVMDTLNAKEGRGTLYFAGQGIQQQWQMKRAMLSPRYTTRSSDLLRVK
[1]
  total protein half-life in vivo: 5.93 h

## MSTEIKTQVVVLGAGPAGYSAAFRCADLGLETVIVERYNTLGGVCLNVGCIPSKALLHVAKVIEEAKALAEHGIVFGEPKTDIDKIRTWKEKVINQLTGGLAGMAKGRKVKVVNGLGKFTGANTLEVEGENGKTVINFDNAIIAAGSRPIQLPFIPHEDPRIWDSTDALELKEVPERLLVMGGGIIGLEMGTVYHALGSQIDVVEMFDQVIPAADKDIVKVFTKRISKKFNLMLETKVTAVEAKEDGIYVTMEGKKAPAEPQRYDAVLVAIGRVPNGKNLDAGKAGVEVDDRGFIRVDKQLRTNVPHIFAIGDIVGQPMLAHKGVHEGHVAAEVIAGKKHYFDPKVIPSIAYTEPEVAWVGLTEKEAKEKGISYETATFPWAASGRAIASDCADGMTKLIFDKESHRVIGGAIVGTNGGELLGEIGLAIEMGCDAEDIALTIHAHPTLHESVGLAAEVFEGSITDLPNPKAKKK [P0A9P0]
[1]
  total protein half-life in vivo: 6.89 ± 0.093 h
[2]
  total protein half-life in vivo: 6.28 ± 0.24 h
[11]
  total protein half-life in vivo: 6.35 ± 0.43 h
[3]
  total protein half-life in vivo: 6.43 ± 0.36 h
[4]
  total protein half-life in vivo: 6.01 ± 0.24 h
[5]
  total protein half-life in vivo: 3.11 ± 0.081 h
[12]
  total protein half-life in vivo: 6.68 ± 0.33 h
[6]
  total protein half-life in vivo: 12.6 ± 1.1 h
[7]
  total protein half-life in vivo: 6.23 ± 0.55 h
[8]
  total protein half-life in vivo: 13.1 ± 0.57 h
[9]
  total protein half-life in vivo: 6.11 ± 0.12 h
[10]
  total protein half-life in vivo: 14.4 ± 0.26 h

## MNYQNDDLRIKEIKELLPPVALLEKFPATENAANTVAHARKAIHKILKGNDDRLLVVIGPCSIHDPVAAKEYATRLLALREELKDELEIVMRVYFEKPRTTVGWKGLINDPHMDNSFQINDGLRIARKLLLDINDSGLPAAGEFLDMITPQYLADLMSWGAIGARTTESQVHRELASGLSCPVGFKNGTDGTIKVAIDAINAAGAPHCFLSVTKWGHSAIVNTSGNGDCHIILRGGKEPNYSAKHVAEVKEGLNKAGLPAQVMIDFSHANSSKQFKKQMDVCADVCQQIAGGEKAIIGVMVESHLVEGNQSLESGEPLAYGKSITDACIGWEDTDALLRQLANAVKARRG [P0AB91]
[1]
  total protein half-life in vivo: 3.65 ± 0.43 h
[2]
  total protein half-life in vivo: 2.92 ± 0.049 h
[11]
  total protein half-life in vivo: 2.76 ± 0.068 h
[3]
  total protein half-life in vivo: 3.62 ± 0.64 h
[4]
  total protein half-life in vivo: 3.01 ± 0.16 h
[5]
  total protein half-life in vivo: 3.18 ± 0.28 h
[12]
  total protein half-life in vivo: 5.81 ± 0.16 h
[6]
  total protein half-life in vivo: 10.3 ± 0.25 h
[7]
  total protein half-life in vivo: 3.02 ± 0.048 h
[8]
  total protein half-life in vivo: 3.98 ± 0.2 h
[9]
  total protein half-life in vivo: 5.41 ± 0.039 h
[10]
  total protein half-life in vivo: 10.3 ± 0.3 h
